One data set has as its target mtAR S210A (UniProt P10275).
A further data set addresses mtAR S790A (UniProt P10275).

Sequence of mtAR S790A (P10275 whole entry, looked up, stated change not applied): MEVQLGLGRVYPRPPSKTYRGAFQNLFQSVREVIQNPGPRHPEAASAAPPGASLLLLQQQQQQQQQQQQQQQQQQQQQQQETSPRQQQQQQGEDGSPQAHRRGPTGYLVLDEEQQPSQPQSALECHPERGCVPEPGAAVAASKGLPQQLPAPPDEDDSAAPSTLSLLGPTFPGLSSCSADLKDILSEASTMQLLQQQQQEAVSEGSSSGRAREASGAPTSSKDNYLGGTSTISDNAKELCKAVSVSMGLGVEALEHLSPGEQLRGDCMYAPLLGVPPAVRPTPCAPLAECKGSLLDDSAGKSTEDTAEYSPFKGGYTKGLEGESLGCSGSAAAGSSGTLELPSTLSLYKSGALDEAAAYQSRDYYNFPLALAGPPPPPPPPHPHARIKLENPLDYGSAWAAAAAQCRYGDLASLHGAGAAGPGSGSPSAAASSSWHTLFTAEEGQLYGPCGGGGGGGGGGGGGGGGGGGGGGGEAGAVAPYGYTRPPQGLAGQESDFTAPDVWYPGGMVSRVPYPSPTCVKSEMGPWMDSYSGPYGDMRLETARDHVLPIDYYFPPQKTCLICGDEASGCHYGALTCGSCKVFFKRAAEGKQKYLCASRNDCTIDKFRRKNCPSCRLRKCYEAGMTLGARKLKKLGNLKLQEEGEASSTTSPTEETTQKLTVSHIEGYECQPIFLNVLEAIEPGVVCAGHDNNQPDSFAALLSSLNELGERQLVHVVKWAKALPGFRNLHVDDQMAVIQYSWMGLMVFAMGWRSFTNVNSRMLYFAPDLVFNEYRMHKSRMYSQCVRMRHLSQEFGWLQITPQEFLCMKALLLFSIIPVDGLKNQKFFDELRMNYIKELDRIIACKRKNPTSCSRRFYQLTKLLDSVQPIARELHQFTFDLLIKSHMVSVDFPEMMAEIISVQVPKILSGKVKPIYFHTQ
Sequence of mtAR S210A (P10275 whole entry, looked up, stated change not applied): as above

Akt/PKB (endogenous, LNCaP cells): in the data set with mtAR S210A, the “in vitro phosphorylation of immunoprecipitated AR by Akt” value is “the degree of Akt phosphorylation of mtARS210A and mtARS790A, as compared to wtAR, was reduced significantly”; the “in vitro phosphorylation of immunoprecipitated AR by Akt/PKB” value was “the degree of phosphorylation of ARS210A and ARS790A by Akt/PKB, as compared to wtAR, was reduced significantly”. Also, in the data set with mtAR S790A, the “in vitro phosphorylation of immunoprecipitated AR by Akt” value was “the degree of Akt phosphorylation of mtARS210A and mtARS790A, as compared to wtAR, was reduced significantly”; the “in vitro phosphorylation of immunoprecipitated AR by Akt/PKB” value is “the degree of phosphorylation of ARS210A and ARS790A by Akt/PKB, as compared to wtAR, was reduced significantly”.

(Values after patent US20040235717.)
